Laboratory results taken from patent publication US20250115669A1, “FGFR1/KLB Targeting Agonistic Antigen-Binding Proteins and Conjugates Thereof with GLP-1R Agonistic Peptides” (SANOFI, priority 2020, published 2025).

T1: human beta-Klotho (Homo sapiens, UniProt Q86Z14)
T1 sequence (Q86Z14 1-1044): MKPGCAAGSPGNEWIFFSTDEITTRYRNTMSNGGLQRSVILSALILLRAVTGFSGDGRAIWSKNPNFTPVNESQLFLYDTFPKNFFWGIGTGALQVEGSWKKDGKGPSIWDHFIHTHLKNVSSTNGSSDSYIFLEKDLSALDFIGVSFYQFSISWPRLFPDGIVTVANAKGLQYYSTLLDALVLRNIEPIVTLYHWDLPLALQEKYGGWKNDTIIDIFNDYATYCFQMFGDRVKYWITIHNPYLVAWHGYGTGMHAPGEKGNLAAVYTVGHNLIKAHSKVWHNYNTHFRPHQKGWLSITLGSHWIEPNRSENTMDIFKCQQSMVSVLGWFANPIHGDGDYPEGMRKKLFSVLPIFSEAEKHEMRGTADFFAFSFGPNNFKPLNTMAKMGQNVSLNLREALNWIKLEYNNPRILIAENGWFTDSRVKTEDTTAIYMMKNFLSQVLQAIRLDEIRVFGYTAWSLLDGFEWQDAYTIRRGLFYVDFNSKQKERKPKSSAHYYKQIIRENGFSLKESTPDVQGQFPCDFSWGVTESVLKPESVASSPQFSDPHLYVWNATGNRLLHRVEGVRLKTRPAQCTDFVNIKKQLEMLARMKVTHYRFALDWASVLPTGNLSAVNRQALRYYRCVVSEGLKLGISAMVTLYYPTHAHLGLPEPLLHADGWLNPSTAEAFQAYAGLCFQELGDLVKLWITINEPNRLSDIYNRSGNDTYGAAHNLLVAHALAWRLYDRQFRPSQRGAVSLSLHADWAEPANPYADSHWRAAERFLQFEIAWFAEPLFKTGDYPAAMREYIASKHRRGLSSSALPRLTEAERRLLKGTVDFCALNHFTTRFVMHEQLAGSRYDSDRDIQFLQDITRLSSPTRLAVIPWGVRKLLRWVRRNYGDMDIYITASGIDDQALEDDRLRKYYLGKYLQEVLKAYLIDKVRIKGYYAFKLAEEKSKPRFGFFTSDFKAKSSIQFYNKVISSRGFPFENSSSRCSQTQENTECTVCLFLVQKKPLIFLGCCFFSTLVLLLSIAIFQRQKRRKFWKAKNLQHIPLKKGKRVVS


Key:
[1] = biological target: T2, FGFR1c and co-receptor beta-Klotho (KLB) (Homo sapiens, UniProt P11362+Q86Z14); assay: Luciferase reporter gene assay (iLite FGF21 Assay Ready Cells), FGF21-like signaling; assay type: cell-based; conditions: Luciferase gene reporter assay, mean, n=3-7
T2 construct: host or cells: iLite FGF21 Assay Ready Cells (HEK293)

human beta-Klotho = biological target: T1, human beta-Klotho; assay: SPR off-rate screening of antibody mutants (human beta-Klotho captured by anti-His antibody); assay type: binding; conditions: mean, n=3
In short: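 Using beta-Klotho bound through its His tag to an anti-His capture surface, we measure dissociation of 50 nmol/L antibody analytes over 300 sec following 240 sec of association; surfaces are regenerated between cycles and kd is fitted single-exponentially.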

[2] = In vivo PK in transgenic humanized FcRn mice (Tg32); conditions: 0.3 mg/kg single IV, plasma, noncompartmental analysis
Method: In vivo PK studies were conducted in transgenic humanized FcRn mice (Tg32). For these studies, no GLP compliance was claimed.

T2 sequence (P11362 22-820 isoform P11362-2 limits assumed, one chain of several): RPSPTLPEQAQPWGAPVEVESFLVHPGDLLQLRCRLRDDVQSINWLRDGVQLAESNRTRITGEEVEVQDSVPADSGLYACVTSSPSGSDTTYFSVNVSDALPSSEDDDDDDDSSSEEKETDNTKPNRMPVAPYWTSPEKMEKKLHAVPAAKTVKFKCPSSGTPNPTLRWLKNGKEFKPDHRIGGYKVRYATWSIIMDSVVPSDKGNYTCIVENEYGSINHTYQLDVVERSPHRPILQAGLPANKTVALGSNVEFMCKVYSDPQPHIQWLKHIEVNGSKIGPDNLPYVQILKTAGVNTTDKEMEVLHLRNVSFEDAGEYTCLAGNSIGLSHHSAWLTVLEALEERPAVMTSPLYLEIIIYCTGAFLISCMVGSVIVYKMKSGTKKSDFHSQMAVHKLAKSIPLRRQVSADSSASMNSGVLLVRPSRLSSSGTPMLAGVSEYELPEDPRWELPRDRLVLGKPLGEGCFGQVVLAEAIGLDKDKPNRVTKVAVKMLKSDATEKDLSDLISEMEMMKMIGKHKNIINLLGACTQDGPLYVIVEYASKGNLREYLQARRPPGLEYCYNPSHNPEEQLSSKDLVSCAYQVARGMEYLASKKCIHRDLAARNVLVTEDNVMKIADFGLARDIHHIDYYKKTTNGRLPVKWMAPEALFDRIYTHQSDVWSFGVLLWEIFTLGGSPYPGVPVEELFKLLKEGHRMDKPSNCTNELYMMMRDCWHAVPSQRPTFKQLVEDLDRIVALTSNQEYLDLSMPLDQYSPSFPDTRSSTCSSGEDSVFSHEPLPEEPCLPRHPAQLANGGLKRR

| HEK293 hFGFR1c + KLB (iLite) Emax [1] [%] | koff human KLB (human beta-Klotho) | Molecule | t½ [2] [days] |
| --- | --- | --- | --- |
| 490.05 | – | Ab0370: IgG4 PE; 16H7 VL (Y48del, W90H); 16H7 VH (M34V, H52W, I83T, D109E) (antibody) VH: QVTLKESGPVLVKPTETLTLTCTVSGFSLNNARVGVSWIRQPPGKALEWLAWIFSNDEKSYSTSLKSRLTISKDTSKSQVVLTMTNMDPVDTATYYCARSVVTGGYYYEGMDVWGQGTTVTVSS light: SYVLTQPPSVSVAPGQTARITCGGNNIGSESVHWYQQKPGQAPVLVVDDSDRPSGIPERFSGSNSGNTATLTISRVEAGDEADYYCQVHDGNSDHVVFGGGTKLTVLGQPKANPTVTLFPPSSEELQANKATLVCLISDFYPGAVTVAWKADGSPVKAGVETTKPSKQSNNKYAASSYLSLTPEQWKSHRSYSCQVTHEGSTVEKTVAPTECS | – |
| – | no binding | Ab0375: IgG4 PE; 16H7 VL (Y48del, D95E, W90F, S1C, S94C); 16H7 VH (M34V, F54W, I83T, D109E) (antibody) VH: QVTLKESGPVLVKPTETLTLTCTVSGFSLNNARVGVSWIRQPPGKALEWLAHIWSNDEKSYSTSLKSRLTISKDTSKSQVVLTMTNMDPVDTATYYCARSVVTGGYYYEGMDVWGQGTTVTVSS light: CYVLTQPPSVSVAPGQTARITCGGNNIGSESVHWYQQKPGQAPVLVVDDSDRPSGIPERFSGSNSGNTATLTISRVEAGDEADYYCQVFDGNCEHVVFGGGTKLTVLGQPKANPTVTLFPPSSEELQANKATLVCLISDFYPGAVTVAWKADGSPVKAGVETTKPSKQSNNKYAASSYLSLTPEQWKSHRSYSCQVTHEGSTVEKTVAPTECS | – |
| – | 0.000402 s⁻¹ | Ab0314: IgG4 PE; 16H7 VL (N25S, D91T, N93E); 16H7 VH (M34V, I83T, D109E) (antibody) VH: QVTLKESGPVLVKPTETLTLTCTVSGFSLNNARVGVSWIRQPPGKALEWLAHIFSNDEKSYSTSLKSRLTISKDTSKSQVVLTMTNMDPVDTATYYCARSVVTGGYYYEGMDVWGQGTTVTVSS light: SYVLTQPPSVSVAPGQTARITCGGSNIGSESVHWYQQKPGQAPVLVVYDDSDRPSGIPERFSGSNSGNTATLTISRVEAGDEADYYCQVWTGESDHVVFGGGTKLTVLGQPKANPTVTLFPPSSEELQANKATLVCLISDFYPGAVTVAWKADGSPVKAGVETTKPSKQSNNKYAASSYLSLTPEQWKSHRSYSCQVTHEGSTVEKTVAPTECS | 18 |
